This note sets out measurements from the DeepSol protein solubility set.

The nature of the data set: soluble on expression in E. coli; label from the status in PepcDB or PDB records.
Consider “MAACGNPSAAVKFERLPTFAEPTHYNVRLSPCLNQFSFDGHATIDVTIKEATDVLKVHAQSLLIQSVSLITQPGDASKSLETSYDDKLNILTIKLPTTMQPQKVQLDFKFVGELNDKMRGFYRSQYKDKNGTEKFLASTQFESTYARYAFPCFDEPIYKATFDVTLEVENHLTALSNMNVISETPTADGKRKAVTFATSPKMSSYLVAFAVGELEYISAQTKSGVEMRVYTVPGKKEQGQYSLDLSVKCIDWYNEWFDIKYPLPKCDLIAIPDFSMGAMENWGLVTYREIALLVDPGVTSTRQKSRVALVVAHELAHLWFGNLVTMKWWTDLWLKEGFASFMEYMFVGANCPEFKIWLHFLNDELASGMGLDALRNSHPIEVEIDNPNELDEIYDSITYAKSNSVNRMLCYYLSEPVFQKGLRLYLKRFQYSNAVTQDLWTALSEASGQNVNELMSGWTQQMGFPVLKVSQRQDGNNRILTVEQRRFISDGGEDPKNSQWQVPITVAVGSSPSDVKARFLLKEKQQEFTIEGVAPGEWVKLNSGTTGFYRVEYSDEMLTAMLPDIASRRMPVLDRFGLINDLSALLNTGRVSIAQFVQVAASSAKEDEYVVWGAIDEGMSKLLACAREMSEDTLKSAKQLVVKMFEQTGAELGFAEQAGEDSQKMMLRSLVQARLARAGHQPTIDKFTQMFNDFLEKGTPIHPDIRLATFGVVARYGGKEGFDKLMNLRETTTFQEIERQTMVAMSQTPEESLLAQLFEYGFEKNKVRPQDQLYLFLGTGATHMGQQYAWKYFCEHIKEFLDKYGGANSSLFQRCLKFAGESFGNEKRAVEFQDFFCNCNVLSDTDRQTLARPIGQTVEAIRLNARLLESNRQIIENLLKQSNV”, for which the “soluble on expression in E. coli” value is on record as “not soluble”.

As for “MIQDETLEREVADLVISTLNLDVSPESVDPEAPLYREGLGLDSIDILEIALVVSKRYGFQLRADNEDNVLEHHHHHH”, the “soluble on expression in E. coli” value is listed as “not soluble”.

With “SLTDRLERKLAIAANQDKADLLIKNGQIVDVFQLETFEGDVVIADGEIVAISDPGTYEAHEEVDAKGAFIAPAFIDGHVHIESSMVAPEQFAKVVVPHGVTTVIADPHEIANVAGVQGVEYMLDASEGIPLDVKMMVPSCVPATPFEHSGARLTAEEVAELFRDPRIFGLGEVMDYPAVLTRDQEMMAKLKAAHSEGRIVDGHGAGLDSVALNAYTAAGIGNDHEAVTPEEAKARLQRGMYLLIREGTAAKDFDALMKAITPMNSRRALFVTDDKHLDELVEEGSIDHHVRKAIQIGVNPLQAIQMASLNAAECFKLAKKGAIAPGFTADLLFIEDLQSLAITHVFKNGTCVAKNGKLIVPIRETVQPPQRLLESVNMKLVTKEQLELSLQSDEEAHLIQIQPGSIVTKHIREKVAVKDGVFIPSVARDQLKLVVAERHHKRGTVGVGIVKGFGLTKGAIATTVAHDSHNIVAVGTNDEDLLAAIKELENIQGGMTIVKDGKVLVSLPLTIGGLMSDQSYDVVCEQIKSVDAAIGALGFVGDFNPFLTLSFLALPVIPEIKLTDQGLFDVTSFSFIDQQVYAEETN”, the “soluble on expression in E. coli” value is “soluble”.

Regarding “MSLESVQNYEAKSAHAHQAFFLKFEELKEVSKEQPRLEAEYPANTTKNYDHSRVRLTQLEGEPHSDYINANLVPGYTRPQEFIASQGPLKKTLENFWRLVREQQVRIIIMPTISMENGRVLCEHYWLTDSTPDTHGHITIHLLAEEPEDEWTKREFQLQHLLRGCPCGVGMGRTGTFVALSRLLQQLEEEQMVDVFHAVYALRMHQPLMIQTLSQYVFLHSCLLNKILEGPFNISESWPISVTDLPQACAKRAASANAGFLKEYEAIKDEAGFSAPPPGYEQDSPVSYDRSQGQFSPVEESPPDDMPEAWLFPGGPSGRDHTVLTGPAGPKELWELVWQHRAHVLVSLCPPNVMEKGESRKEREVQRLQFPYLEPGHELPATTLLPFLAAVGQCCSRGNNKKPGTLLSHSKCCWTMVSCSKGATQLGTFLAMEQLLQQAGSECTVDIFNVALQQSQACGLMTPTLITQQCLLLSDCTAPPPTEGHHHHHH”, the “soluble on expression in E. coli” value is “not soluble”.

For “MFDDLHEYLDFLARKNDLITVNDQVDPDLELTYILSEEERIGRGRTIQFNRVKGSEVPAVGNLFSTYEKMKTVLGDDPYQIGRRIVEIAQPPGDSESFIGKGIEMMRELGGLRPKIAGSLPSNYDELDRVDLFRYPICKTWPQDGGKFITLPLVITKDPETGTRNMGMYRMQVYDSETTGMHWHIHKGGSENFQKEAQKHEVMDVAVVIGSDPLTIFSAVAPLPNGIDEFMFRGLVSKKRFDLVKGKTVNLEYPRNFEIVLEGYIDPAETRIEGPFGDHTGYYSLEEQFPVFHIKKIIERRDRIYPTTIVGKLWHEDVIMGKTIERMFLPLIQMVMPEVVDINTMEEAVFHNMVIVSIKKRYPGHAKKVMFGLWGMGQMMFSKIIVVVDDDINVHNRKEVIWAMTTRIDPDRDVIIIPGTVTDSLDHASPIFNYGSKMGIDATKKRPDEGYQRRWPDVLEMPEDVTNRVRDLMKKNGMTQLEHHHHHH”, the “soluble on expression in E. coli” value is “not soluble”.

On to “MLAGLGEGGRVYIADLAIGPVALRDDGSIEEYELFPRSVDEAVTEALRLEEEGFTLAHEKLGKKLVESGVGSLVVESEDTARHFSKLGLSVKVEPGNNVALSARERLVSLGVELGFFGSEDDALSWLYEVEVEYTRRKLRGAAQKRDMLAAQAIRAIDDIDKTVNLFVARLREWYSIHFPELNDLVREHEDYVKIVSAVGHRDNITVERLVDLGFSEEKARRIAEAAKQSIGADLSEIDIQAVQTLARITSELYQLRRRLTEYIEQVMNEVAPNITALVGPLLGARLISLAGGLDKLARMPASTIQVLGAEKALFRALRTGGKPPKHGIIFQYPDIHRSPKWQRGKIARALAAKLAIAAKVDAFTGRFIGDKLREELRRRIAEIKKIYAKPPKRKREEKPPQPRRARPPRRGRPPRRRRGGRRLEHHHHHH”, for which the “soluble on expression in E. coli” value is listed as “soluble”.

On to “MSLQAPMALVPVRTIYPGEAISPEQVKSVEVTNPNISAGYASDISEVEGMISKQTLLPGRTIPIAALREPSLVVRGTSVKLVFHIGNMTLMASGTPMSDGSLGEVVRVRNIDSGVMVSGTVMKDGTIQVMAKEGHHHHHH”, for which the “soluble on expression in E. coli” value is “soluble”.

“MNGEEIIRFERVTKEYDGTVVLDDVSFAMERGKFYTLLGPSGCGKTTILRLIAGFIEPTEGTIYFHGKPIQNVPPNKRQVNTVFQDYALFPHLDVFENVAFGLRVKKMKEADIRQKVSEALRFVNLEGYERRRIQEMSGGQRQRVAIARAIVNEPEVLLLDEPLSALDLKLRTEMQYELRELQRRLGITFIFVTHDQEEALAMSDYIFVLNKGKIQQFGTPKDIYDEPINRFVADFIGESNILSGRMIDDFLVEFAGKQFACVDRGFAPNEPVDVVIRPEDLELAAPEDGQIVIRVDSLLFRGVHYEICGYDENGNEWLVHSTKKAEVGETVGLRFEPEAIHVMRVEREDEGA”: the “soluble on expression in E. coli” value was “soluble”.

Take “TQKPSLYRVLILNDDYTPMEFVVYVLERFFNKSREDATRIMLHVHQNGVGVCGVYTYEVAETKVAQVIDSARRHQHPLQCTMEKD”: the “soluble on expression in E. coli” value was “soluble”.

“MNNLPLLNDLRVFMLVARRAGFAAAAEELGVSPAFVSKRVSLLEQTLNVMLLHRTTRRVTITEEGERIYEWAQRILQDVDEMMDELSDVRQVPQGTLRIISSFGFGRRVVAPALSALALQYPQLELRFDVQDRLVDLVNEGVDLDIRVGDDIAPNLIARQLAANHRVLCASPQFLARHAPPKQLSDLAALPCLVIKERDHPFGVWQLHSKEGQHAIKVTGPLSSNHGEIVHQWCLDGQGIALRSWWDVRENIASGHLVQVLPDYWQPANVWAVYVSRLATSAKIRTTVEFLRHYFQLHYPQHEPTASAVGRGD”: the “soluble on expression in E. coli” value is on record as “not soluble”.

For “MRMILMFDMPTETAEERKAYRKFRKFLLSEGFIMHQFSVYSKLLLNNTANNAMIGRLKVNNPKKGNITLLTVTEKQFARMVYLHGERNTSVANSDSRLVFLGDSYDQDLEHHHHHH”, the “soluble on expression in E. coli” value is recorded as “not soluble”.

Turning to “GKKAVINDSNTPLHLLQPAYQGTYGDLTPEQVKKDIDRVFAYIDKETPARVVDKNTGKVITDYTAMGDEAQLERGAFRLASYEWGVTYSALIAAAETTGDKRYTDYVQNRFRFLAEVAPHFKRVYEEKGKTDSQLLQILTPHALDDAGAVCTAMIKLRLKDESLPVDGLIQNYFDFIINKEYRLADGTFARNRPQRNTLWLDDMFMGIPAVAQMSRYDKEAKNKYLAEAVKQFLQFADRMFIPEKGLYRHGWVESSTDHPAFCWARANGWALLTACELLDVLPEDYPQRPKVMDYFRAHVRGVTALQSGEGFWHQLLDCNDSYLETSATAIYVYCLAHAINKGWIDAIAYGPVAQLGWHAVAGKINEEGQVEGTCVGTGMAFDPAFYYYRPVNVYAAHGYGPVLWAGAEMIRLLNTQHPQMNDSAVQYYQEKQKTTAPIFAVDSE”, the “soluble on expression in E. coli” value is given as “soluble”.

Regarding “MLPNGRKWLDLWRKNVTVTAGGFLAISATTGVAGYEMAKDDVTLIKNGNKQEIRTHAKTVKELLAEQNIQPRKEDYVYPSLHSPITDDLHIVWEASKEVTLTVNGKKKKIWTTADTVAELLRSQHVAVGAYDKVAPALSAKIQKGMDIGVEKAFPVHVNVGGKQQQVWTTSTTVADFLKQQGIQLGQFDRIEPSLHETVKEQMTIRVIRVKKVTDVVEEPVDFAVVTKRDDSLPKGERRVIQPGEKGMVQKTYEVTLENGKETARKLIAAKTLKESKARIVAIGTKTVRSAAAPDRPSSRGSDHAAKEFYVTATAYTAYCAGCSGITSTGINLRKNPSAKVIAVDPSIIPLGSKVYVEGYGYAIAADTGSGIRGYKIDVFFPERSDAFRWGRKRVKIRVLP”, the “soluble on expression in E. coli” value is recorded as “not soluble”.

In the case of “ADTPGEATPPPRKKKDIRDYNDADMARLLEQWEKDDDIEEGDLPEHKRPSAPIDFSKLDPGKPESILKMTKKGKTLMMFVTVSGNPTEKETEEITSLWQGSLFNANYDVQRFIVGSDRAIFMLRDGSYAWEIKDFLVSQDRCAEVTLEGQMYPGKGGGSKEKNKTKPEKAKKKEGDPKPRASKEDNRAGSRREDL”, the “soluble on expression in E. coli” value was “soluble”.

“ALSGSSGYKFGVLAKIVNYMKTRHQRGDTHPLTLDEILDETQHLDIGLKQKQWLMTEALVNNPKIEVIDGKYAFKPKYNVR”: the “soluble on expression in E. coli” value is given as “soluble”.

On to “MIARKRRARTIHSRYPIGIYGSIVMTDIAQLLGKDADNLLQHRCMTIPSDQLYLPGHDYVDRVMIDNNRPPAVLRNMQTLYNTGRLAGTGYLSILPVDQGVEHSAGASFAANPLYFDPKNIVELAIEAGCNCVASTYGVLASVSRRYAHRIPFLVKLNHNETLSYPNTYDQTLYASVEQAFNMGAVAVGATIYFGSEESRRQIEEISAAFERAHELGMVTVLWAYLRNSAFKKDGVDYHVSADLTGQANHLAATIGADIVKQKMAENNGGYKAINYGYTDDRVYSKLTSENPIDLVRYQLANCYMGRAGLINSGGAAGGETDLSDAVRTAVINKRAGGMGLILGRKAFKKSMADGVKLINAVQDVYLDSKITIA”, for which the “soluble on expression in E. coli” value is reported as “soluble”.

Take “MGSDKIHHHHHHMSSNESQTLATISPTALSQLARYIKQWGQELGFAQVGITDTDLSEEEAKLQDWLDKGYHGEMGYMANHGMMRARPHELHQGTKRVVSLRMDYLPPSAGFATNLIDPTLGYISRYAGGRDYHKLMRQRIKKLGDKIEAYCQEQGFGATDSRPFVDSAPVMERPLAEKAGIGWTGKHSLILNHNAGSWFFLGELFINLPLPLDIPISDGCNTCVACIKSCPTGAIVEPYVVDGRRCISYLTIELQGAIPEEFRPLMGNRIYGCDDCQLVCPINAQAPLTQEHDFHIRQQILQPELLTLFNWSEKTFLSLTEGSAIRRIGHKRWLRNIAIALGNAPANPNIIEALSARKASDEVDDMVLEHINWALAQQQAKVQQQTKVQQQAKVQQAVQFEPARETPAQRKTARVVRSVEKGLPRDA”: the “soluble on expression in E. coli” value is “not soluble”.

Turning to “MELTLHEARVIGCLLEKEVTTPEQYPLSLNALTLACNQKTSREPVLELTEAQVQDALDSLNKKRLISEQSGFGSRVVKYKHRFCNTEFSELQLSTAAVAIVCLLLLRGPQTPGELRTRSNRLHDFKDVLEVEACIKQLMERDKPVLTQLPREPGKRECRYTELFSQGSEQVSATSLSADSPSADSNSLNAQDRQQLEARVTQLEGQVAELKDKLESLIASLS”, the “soluble on expression in E. coli” value is on record as “soluble”.
